What all share (type): biochemical
One experiment addresses T1, TYRO3 (Homo sapiens, UniProt Q06418).
T1 sequence (Q06418 41-890): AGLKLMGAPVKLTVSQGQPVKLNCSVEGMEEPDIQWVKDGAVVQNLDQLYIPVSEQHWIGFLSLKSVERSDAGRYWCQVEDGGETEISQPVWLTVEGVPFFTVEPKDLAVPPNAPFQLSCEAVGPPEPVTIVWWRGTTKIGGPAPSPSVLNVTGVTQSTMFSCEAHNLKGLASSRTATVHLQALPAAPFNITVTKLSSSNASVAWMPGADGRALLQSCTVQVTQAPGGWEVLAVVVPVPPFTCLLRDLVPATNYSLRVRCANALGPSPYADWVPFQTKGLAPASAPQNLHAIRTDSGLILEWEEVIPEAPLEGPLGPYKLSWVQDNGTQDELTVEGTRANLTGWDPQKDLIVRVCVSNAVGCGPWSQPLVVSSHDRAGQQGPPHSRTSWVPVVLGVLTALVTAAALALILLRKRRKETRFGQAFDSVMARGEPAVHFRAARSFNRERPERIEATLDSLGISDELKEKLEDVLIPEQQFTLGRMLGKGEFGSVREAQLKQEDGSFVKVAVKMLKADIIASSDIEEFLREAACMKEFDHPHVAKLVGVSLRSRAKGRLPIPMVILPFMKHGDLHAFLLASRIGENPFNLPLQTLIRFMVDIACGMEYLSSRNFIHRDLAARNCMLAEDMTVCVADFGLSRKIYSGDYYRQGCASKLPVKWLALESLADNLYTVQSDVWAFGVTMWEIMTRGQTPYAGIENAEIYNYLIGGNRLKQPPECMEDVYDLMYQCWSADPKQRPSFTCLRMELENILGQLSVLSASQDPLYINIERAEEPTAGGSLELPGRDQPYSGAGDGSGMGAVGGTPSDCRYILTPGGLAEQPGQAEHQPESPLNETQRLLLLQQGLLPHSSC
The experiment is described as follows: TR-FRET kinase assay, TYRO3. The settings on record: Kinase Concentration 0.25 nM; 50 nM ULight-labeled substrate, 200 micromolar ATP, 2 hours. As for the experimental part:
(§1) TR-FRET kinase assays are performed under standardized conditions: various individual kinases are incubated with 50 nM of kinase substrate BRB1 labeled with the TR-FRET acceptor dye ULight (PerkinElmer) and 200 micromolar ATP in 10 μL of kinase assay buffer (50 mM HEPES pH7.5, 10 mM MgCl2, 3 mM MnCl2, 1 mM EGTA, 2 mM DTT and 0.01% Tween-20) for 2 hours at room temperature. Reactions are stopped with EDTA, and anti-phospho-tyrosine antibodies (clone PT66) labeled with the TR-FRET europium chelate donor dye are added to a final concentration of 2 nM in a final volume of 20 μL. The TR-FRET signal emitted at 665 nm is read one hour after the addition of antibodies using a TR-FRET plate reader such as the Envision® Multilabel Plate reader (PerkinElmer). The emitted signal at 665 nm is proportional to the extent of peptide phosphorylation, Control reactions indicative of background are performed excluding ATP from the reaction.
(§2) Assay conditions are identical to those used described for FIG. 1.
A general note: In TR-FRET formats the signal depends on donor and acceptor labels being close together.

The next experiment has as its target AXL (Homo sapiens, UniProt P30530). Kind of experiment: TR-FRET kinase assay, AXL. As to conditions: Kinase Concentration 4 nM; 50 nM ULight-labeled substrate, 200 micromolar ATP, 2 hours. As for the experimental part: as §1, §2
A further experiment deals with T2, EphB4 (Homo sapiens, UniProt P54760).
T2 sequence (P54760 16-987): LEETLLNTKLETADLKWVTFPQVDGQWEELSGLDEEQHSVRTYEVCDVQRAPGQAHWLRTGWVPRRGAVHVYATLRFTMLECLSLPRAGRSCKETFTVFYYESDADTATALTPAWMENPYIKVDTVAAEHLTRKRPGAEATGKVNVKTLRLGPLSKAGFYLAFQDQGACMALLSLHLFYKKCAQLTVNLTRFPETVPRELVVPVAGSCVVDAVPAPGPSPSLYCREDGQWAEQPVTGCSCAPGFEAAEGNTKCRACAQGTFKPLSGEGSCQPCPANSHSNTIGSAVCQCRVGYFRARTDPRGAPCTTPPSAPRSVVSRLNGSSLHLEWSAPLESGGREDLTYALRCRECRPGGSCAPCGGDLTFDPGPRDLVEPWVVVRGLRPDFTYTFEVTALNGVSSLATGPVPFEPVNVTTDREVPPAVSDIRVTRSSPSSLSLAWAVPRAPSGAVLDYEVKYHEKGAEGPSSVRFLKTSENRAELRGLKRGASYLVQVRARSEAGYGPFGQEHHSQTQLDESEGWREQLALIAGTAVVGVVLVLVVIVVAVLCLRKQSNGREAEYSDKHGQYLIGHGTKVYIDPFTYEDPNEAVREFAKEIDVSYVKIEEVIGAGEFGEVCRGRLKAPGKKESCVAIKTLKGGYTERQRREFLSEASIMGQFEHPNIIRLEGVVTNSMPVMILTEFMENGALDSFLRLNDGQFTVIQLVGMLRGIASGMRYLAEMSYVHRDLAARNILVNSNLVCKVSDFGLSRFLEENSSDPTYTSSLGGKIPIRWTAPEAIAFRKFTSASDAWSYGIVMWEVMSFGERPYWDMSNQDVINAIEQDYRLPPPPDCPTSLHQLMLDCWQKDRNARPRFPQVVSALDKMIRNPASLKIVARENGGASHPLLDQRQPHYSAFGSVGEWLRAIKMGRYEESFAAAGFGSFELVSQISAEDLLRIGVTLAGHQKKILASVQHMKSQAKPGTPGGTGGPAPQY
Kind of experiment: TR-FRET kinase assay, EphB4. As to conditions: Kinase Concentration 0.5 nM; 50 nM ULight-labeled substrate, 200 micromolar ATP, 2 hours. As to the method:
as §1, §2

The next experiment deals with FGFR2 (Homo sapiens, UniProt P21802). Kind of experiment: TR-FRET kinase assay, FGFR2. As to conditions: Kinase Concentration 0.25 nM; 50 nM ULight-labeled substrate, 200 micromolar ATP, 2 hours. As for the experimental part:
as §1, §2

A further experiment has as its target FLT1 (Homo sapiens, UniProt P17948). The experiment is described as follows: TR-FRET kinase assay, FLT1. The settings on record: Kinase Concentration 0.25 nM; 50 nM ULight-labeled substrate, 200 micromolar ATP, 2 hours. As for the experimental part: as §1, §2

Sequence of FLT1 (P17948 27-1338, species assumed): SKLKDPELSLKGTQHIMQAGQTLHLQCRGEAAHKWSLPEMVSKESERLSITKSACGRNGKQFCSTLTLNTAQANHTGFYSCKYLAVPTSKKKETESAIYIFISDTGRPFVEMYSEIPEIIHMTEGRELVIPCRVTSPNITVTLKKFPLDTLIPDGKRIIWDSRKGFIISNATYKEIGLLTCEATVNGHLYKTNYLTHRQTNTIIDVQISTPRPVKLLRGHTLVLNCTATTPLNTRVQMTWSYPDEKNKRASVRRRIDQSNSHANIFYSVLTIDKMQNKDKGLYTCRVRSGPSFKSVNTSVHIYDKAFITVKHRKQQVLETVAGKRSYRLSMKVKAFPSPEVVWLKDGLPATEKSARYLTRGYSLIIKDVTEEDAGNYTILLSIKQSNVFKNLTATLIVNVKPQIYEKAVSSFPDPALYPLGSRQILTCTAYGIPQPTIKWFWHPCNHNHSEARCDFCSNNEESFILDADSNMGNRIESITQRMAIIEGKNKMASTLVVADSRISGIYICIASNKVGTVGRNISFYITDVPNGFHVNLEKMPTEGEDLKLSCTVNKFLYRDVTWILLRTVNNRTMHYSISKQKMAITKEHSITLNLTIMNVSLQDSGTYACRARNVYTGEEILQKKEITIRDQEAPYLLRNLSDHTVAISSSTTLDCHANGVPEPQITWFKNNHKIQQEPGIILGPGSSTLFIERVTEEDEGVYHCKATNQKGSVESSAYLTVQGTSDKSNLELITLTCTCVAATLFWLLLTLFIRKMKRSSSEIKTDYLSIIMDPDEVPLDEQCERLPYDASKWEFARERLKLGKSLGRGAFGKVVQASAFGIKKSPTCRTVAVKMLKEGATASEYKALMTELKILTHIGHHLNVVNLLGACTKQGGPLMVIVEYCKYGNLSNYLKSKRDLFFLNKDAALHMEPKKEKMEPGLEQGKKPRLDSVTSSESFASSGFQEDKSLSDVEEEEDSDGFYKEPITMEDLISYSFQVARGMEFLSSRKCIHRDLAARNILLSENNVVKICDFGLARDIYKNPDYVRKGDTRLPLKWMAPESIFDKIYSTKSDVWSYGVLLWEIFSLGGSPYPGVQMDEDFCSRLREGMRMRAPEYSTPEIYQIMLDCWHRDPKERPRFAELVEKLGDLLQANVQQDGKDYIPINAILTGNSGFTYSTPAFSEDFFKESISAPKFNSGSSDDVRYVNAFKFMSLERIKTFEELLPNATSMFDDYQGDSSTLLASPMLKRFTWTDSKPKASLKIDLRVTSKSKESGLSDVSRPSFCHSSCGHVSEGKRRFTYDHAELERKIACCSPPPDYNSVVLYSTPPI

Take “C AYE AYE AYE K EYA EYA EYA K AYA EYE R (CAYEAYEAYEKEYAEYAEYAKAYAEYER; tyrosine kinase substrate peptide) [BRB1]”: the “Signal to Noise ratio with BRB1 Peptide” value with TYRO3 is 6.1; with AXL, 1.8; with EphB4, 29.8; with FGFR2, 27.1; with FLT1, 4.1.

The values above are taken from patent publication US8242083B2, “Kinase substrates” (PerkinElmer Health Sciences, Inc., priority 2008, dated 2012).
